# B1: PiELO1: P. incisa Δ6 PUFA elongase, 289 amino acid residues, SEQ ID NO: 7 (protein, listed as Parietochloris incisa)
# chain: MALTAAWHKYDAIVSRFVFDGLRRVGLQEIQGHPSVITAHLPFIASPTPQVTFVLAYLLIVVCGVAALRTRKSSAPREDPAWLRLLVQAHNLVLISLSAYMSSAACYYAWKYGYRFWGTNYSPKERDMGGLIYTFYVSKLYEFVDTLIMLLKGKVEQVSFLHVYHHASISTIWWAIAYVAPGGDAWYCCFLNSLVHVLMYTYYLLATLLGKDAKARRKYLWWGRYLTQFQMFQFVTMMLEAAYTWAYSPYPKFLSKLLFFYMITLLALFANFYAQKHGSSRAAKQKLQ
# Tested on: supplied fatty acids in S. cerevisiae strain W303
# Assay: Functional expression of PiELO1 in S. cerevisiae fed with fatty acids, GC of FAMEs
# Assay type: cell-based, Saccharomyces cerevisiae
# Text: The ORF encoding for PiELO1 was amplified using PfuUltra II fusion HS DNA polymerase (Stratagene, La Jolla, Calif.) with the forward primer, 5′-[…] (PUFAEL5RES1) (SEQ ID NO: 33), containing a restriction site (underlined) and a yeast translation consensus followed by ATG (double underlined) and the reverse primer 5′-[…] (PUFAEL3RES2) (SEQ ID NO: 34) containing a restriction site (underlined) and a stop codon (double underlined). The amplified sequence was then restricted with EcoRI and XbaI (NEB, Ipswich, Mass.). The expected bands were gel-purified with NucleoSpin Extract II purification kit (Machery-Nagel GmbH, Duren, Germany) and ligated into a EcoRI-Xba1 cut pYES2 vector, yielding YpPiELO1. Saccharomyces cerevisiae strain W303 was transformed with YpPiELO1 by the PEG/lithium acetate method. The yeast cells harboring the empty pYES2 vector were used as control. Transformants were selected by uracil prototrophy on yeast synthetic medium (YSM) lacking uracil (Invitrogen, Carlsbad, Calif.). For functional expression, a minimal selection medium containing 2% (w/v) raffinose was inoculated with the YpPiELO1-transformants and grown at 27° C. for 24 h in a water bath shaker. Five ml of sterile YSM, containing 1% (w/v) Tergitol-40 and 250 µM of the appropriate fatty acid was inoculated with raffinose-grown cultures to obtain an OD of 0.2 at 600 nm. Expression was induced by adding galactose to a final concentration of 2% (w/v) and cultures were further grown at 27° C. for 48 h. Cells were harvested by centrifugation, washed twice with 0.1% NaHCO3, freeze-dried and used for fatty acid analysis.
# Fatty acid methyl esters (FAMES) were obtained by transmethylation of the freeze-dried P. incisa or yeast biomass, with dry methanol containing 2% H2SO4 (v/v) and heating at 80° C. for 1.5 h while stirring under an argon atmosphere. Gas chromatographic analysis of FAMES was performed on a Thermo Ultra Gas chromatograph (Thermo Scientific, Italy) equipped with PTV injector, FID detector and a fused silica capillary column (30 m×0.32 mm; ZB WAXplus, Phenomenex). FAMES were identified by co-chromatography with authentic standards (Sigma Chemical Co., St. Louis, Mo.; Larodan Fine Chemicals, Malmo, Sweden) and FAME of fish oil (Larodan Fine Chemicals). Each sample was analyzed in duplicates of three independent experiments. The structures of fatty acids were confirmed by GC-MS of their pyrrolidine derivatives [W. W. Christie, The analysis of fatty acids in: W. W. Christie (Ed.), Lipid analysis Isolation, separation, identification and structural analysis of lipids, vol. […]
molecule,measurement,setting,value
B1,elongation of supplied fatty acid,"substrate 18:3ω6 (GLA), product DGLA, 20:3ω6",elongated
same,elongation of supplied fatty acid,"substrate 18:4ω3 (STA), product 20:4ω3",elongated
same,elongation of supplied fatty acid,substrate ARA,did not result in their elongation
same,elongation of supplied fatty acid,substrate LA,did not result in their elongation

# Source: patent US9315837B2, “Desaturases of a green microalga and uses thereof” (Ben Gurion University of the Negev Research and Development …, priority 2010, dated 2016)
